Results published in the supplement of paper PMC9170038.

Test system: K4 kissing-loop RNA reporter
Test: apparent KD of K4 kissing-loop reporter; higher = weaker reporter binding
Details: Eterna round: R107; input ligand: arginine 13.2 mM
Experimental: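 RNA-MaP round R107: designed RNA switches with theophylline, tryptophan, arginine or FMN aptamers are transcribed on-chip within common flanks. They are titrated with a labelled K4 kissing-loop RNA reporter in RNA-MaP buffer (100 mM Tris pH 7.5, 80 mM KCl, 4 mM MgCl2), without ligand or with the indicated ligand. Median apparent KD per design.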
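Note: bound reporter read as fluorescence of individual clusters on recovered sequencing chips by microscopy, with normalized cluster intensities fitted with a binding model.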

| Sequence | apparent KD of K4 kissing-loop reporter |
| --- | --- |
| GUACGCUCUCGAGUGAUGUUCGGUAAUCGCGAGGAUAUCGCUUUUGCGAGAAGGCGCGGAAUGAGGAAACUCGUUCUGAGUGUAC [FMN A 23] | 444 nM |
| GCCGUACGCAUGGAUACCAGCAAGCAUAGCAGGAAACUGCUAUGCACCAGUGAUGUUGGAUGCCCUUGGCAGCCAUGCGUACGGC | 754 nM |
| UGAUAGGACAGAAGGAGCGGUAGUGAUGUUACCAAAAGAAUAAGGUGUCAAAAGACACCCUGCCAGGUAGGUCGCUGUCCUAUCU | 111 nM |
| AGACUACCACACUGUCAAUAGACAGUGAAUUAGGAUAUGCUGAUAAGCAGAAGGAGUGAUGUUCCCAGGUAGUCAAUAAAAUAAU [FmnAX 13 U30+C66] | 124 nM |
| CUUGAGACAUGAGUGAUGUUCAUGUCCGAAGGAGCGUGCGAAAGCACAGGUAGGUCGCGGACGUGAGUGAUGUUCAUGUGAGCGA [KL-XArg-A10 #analogue] | 163 nM |
| UGGAGUUGACGAAAAGUCAACUCCUGAGAAGGAGCGGACGAAAGUCCAGGUAGGUCGCUCACUACCAGUGAUGUUGGUACUUGAA | 293 nM |
| UGUCAUUGGUCGGCCGCCACUAGAAGGUCAAAGACCAUAGAGUGAUGUUCUGAGACGAAAGUCACUAGGACCGGGACCGAUGACU [TrypBS 6 #SwitchBubble #K4Middle] | 385 nM |
| CGCGCGCGCGCGCGCGCGCGCGCGCGAAGUGAGGAUAUUUAGGGAGAAAGAAGGCACUAUAAAAUAUAGUGAUGUUAUAUAAGGG [SSFMNA.B] | 499 nM |
| GUACGCUCUCGAGUGAUGUUCGGUAAUAGUUAGGAUAUCGCUUUUGCGAGAAGGAACUGAAUGAGGAAACUCGUUCUGAGUGUAC [FMN A 18] | 183 nM |
| UGUAUGUGAUUUGAUACCAGACCAGCUGGUGGUGUAUGAGUGAUGUUCAUGCUGGUUUGGGUCCCUUGGCAGCAAAUCGCAUACU [KL-SSTheoB29] | 6.48 nM |
| GCACUCCAUCGGACGUAAGUGAUGUUUACCCGAGGACCGGUACGGCCGCCACUCGACCGUGCAUAACCAAAUCAAAUAGCUUCCG [theeternabot_exclusion_KL_Trp_A_31] | 127 nM |
| UGCGCUAUGUCCUAAAACGUCCUCCGGGAUACCAGUGUCUUUUUAUACCCUUGGCAGCUUGAGUGAUGUUUGAUGCCGUUCUUGU [izzxmullin] | 225 nM |
| CUGACCAACAGCGAUACCAGCGUGGAGUGAUGUUCCGUGGAUCGGAGUGAUGUUCCGAAGCGCCCUUGGCAGCGCAGAAGCAGGA [Exclusion Theophylline B GF11] | 136 nM |
| UGACUGGAUGGAAGGAGCGCUAAACUCCUAGUGAUGUUAGGGACAUGAGGCACAGCCUUGAAGCAGGUAGGUCGCCAUCUAGUCU [FiskerMod 28 - Jieux - Same State - Arginine B] | 135 nM |
| UGGGCUGCCUGAGGAUAUAGAGACGAGUGAUGUUCGUGGAUAAGAGCCAGUGAUGUUGGGUUAUUUCUAGAAGGCGGGCGAACUU [Exclusion FMN B GF8] | 104 nM |
| ACGAUUUACAGAAGGAGCGUGUAUUUAUCUACAAUUUUCUUAGCGAGUGAUGUUCGUUAUACACAGGUAGGUCGCUGUAUAUCGA [JR_ExcArginiB_Sub013] | 214 nM |
| UCCUCGAAUCGACCUCGAAAGAGGAUGGAUACCAGAGAAGAAAUUCUCCCUUGGCAGCCAGUGAUGUUGGAACGAGGUAAAUAAA [#SwitchBubble 20 #K4Late] | 412 nM |

| Sequence | apparent KD of K4 kissing-loop reporter |
| --- | --- |
| GUAUGUGGAAACACGUACUUAUAUCCUCGACAGGAUAUGCGGAAACGCAGAAGGGUCGCCAACGAGUUUAUCCAGUGAUGUUGGA [Ex FMN A 15] | 296 nM |
| GGUUUAUAAGAGGAUACCAGUACAAAUAAAGUACAUUAAUAGUAGAGUGAUGUUCUAAAGUACCCUUGGCAGCUUAGAUUAAGUU [ExTheophylB.F] | 226 nM |
| ACCAUCAAAGAUGGCCAGGACUCCGCUGAUACCAGAGUGGAAACACUCCCUUGGCAGCAGGUGAGUGAUGUUCACAGUCCAUGGA [Omel KL Theo A SS B v4] | 348 nM |
| GGGUCUGCCGGAAGGAGCGCACUAUGGAGUGAUGUUCCAUGACCGCACAGCUUGCGGUCAGUGCAGGUAGGUCGCCGGUAGCGUU [Inesor] | 154 nM |
| CUUGGCAUGCGCGAUACCAGCGAACAUAGCAAGCUACGGGUAGUGAUGUUAUCUGAAUAACGCCCUUGGCAGCGCACAUGCCGGC [clock] | 418 nM |
| CACCCUAGUUCAGAUACCAGACUAGAGACAGUGAUGUUGUCACAUCCUAAAUUGGGUGUAGUCCCUUGGCAGCUGAGUAAUCUGC [Theo B/Ex/SS double] | 635 nM |
| GGUAGCAUGGCGGCCGCCACUUCAAAUGGAGUGAUGUUCCAAGGCAUCGCGAAAGCGAUGCCAGGAAGGACCGGGCCAUGCUACC | 859 nM |
| GGAAGGAAGGAAACCAACCAACCAACCGAUACCAGCGGAAGAGAACGCCCUUGGCAGCGGAGAAAGCCAGUGAUGUUGGAAAGAA | 224 nM |
| AGUGUUAGGUUAGAUACCAGCCGUCUGUGGAUAAUCCACAGACCGCCAGUGAUGUUGGCAGGCCCUUGGCAGCUAACAGGACAGA [Riedingeus] | 215 nM |
| UUAGGCUCUCUUCUCAUUCGCUUAACCGAUACCAGAGUAAGCCCUCUCCCUUGGCAGCGGAGUGAUGUUCCGAGUGUUGAUAUUG [theeternabot_exclusion_KL_Theo_A_44] | 113 nM |
| AAACAUUGGUGCGAUACCAGCUGAUCGGAAACGAUCAUGCUGGAGUGAUGUUCCAGGAAAAGCCCUUGGCAGCGCACCGAUGAAA [MAT - Same State Theophlline B - Mod of Eli - D29] | 79.8 nM |
| UGACUACAUAAGGAUUAAUCCUAGUGAUGUUAGGAUAUGCUGAUAAGCAGAAGGAACGGAGAUCGAAGGAUCUCAUAUGUAGUCU [whbob_Ex_FMNA__2th195] | 135 nM |
| UAUGAAGGUGGAGGAUAUUGAUUGAAUCUUGGUCUGGAGUGAUGUUCCGGGAAGCCUUGGAUUCAUCGAGAAGGCCAAGGAUAGU [Extra 1] | 269 nM |
| AGCCAGCGUACAUCACUCUGGCUGCUGGAUACCAGCUCGGAAACGAGCCCUUGGCAGCCAGAACUUGCAGUGAUGUUGCAAGUAA [Design12] | 276 nM |
| CGCCGCAAGGCGAGCGCUCCCACUCCGGAAGGAGCGCCCGGAAGGGCAGGUAGGUCGCCGGAGUGAUGUUCCGGUGGAGGGCUCG [#2 Exclusion - Arginine A Attempt #13 (Inspired by Omei)] | 248 nM |
| UUCGUCGCGCAUGAUACCAGCGAGAUUUAACGCCGAAUCCUCACGCAGUGAUGUUGCACCCGCCCUUGGCAGCAUAGCCGGUUAC [theeternabot_sameState_KL_Theo_B_13] | 304 nM |

Same assay, conditions: Eterna round: R107; input ligand: none

| Sequence | apparent KD of K4 kissing-loop reporter |
| --- | --- |
| UCGGCGGAGUGAUGUUCCUAUGUCCAAGAUACCAGUCUAUGAACGGACCCUUGGCAGCUUCCAUUAGGUUACUAUUUAGACUCAU [theeternabot_exclusion_KL_Theo_A_10] | 215 nM |
| AGCAAAACCAAAGGAUAUUGGCAGUCGAUGUACCAUGUUCCCGUAGCAGGUUGAGUGAUGUUUAAGCAAGAAGGUUGGCGUUUGG [theeternabot_exclusion_KL_FMN_B_12] | 436 nM |
| UACUAUAGUGAUGUUAUAGAUAAACCAGAUACCAGUGUAACAUAACACCCUUGGCAGCUGAUGAGGGAACAUAUGAAUGCAUAUG [AstrosSSTHe-A#5newdesignED5.11] | 179 nM |
| GGCACUUUUGGUAGAAAACAUCUACCUCUAUAGGAUAUGCCGAAAGGCAGAAGGAUAGACCUACAGAGUGAUGUUCUGCGUGCCU | 447 nM |
| AGCGCUGCCUGAGGAUAUAGAAACGAGUGAUGUUCGUGGAUUGAUACCAGUGAUGUUGGCCUAUUUCUAGAAGGCAGGCGAUCGU [Exclusion FMN B GF2] | 136 nM |
| AUUAUAAAGGCGGCCGCCACUAGUGAUGUUAGUGACUAUAGUAUUAUCUAUAGAAUAAAAUAAAAUAGGACCGGGCCAAAAUAUU [AstrosExTryB#2] | 525 nM |
| GGUGACAACCAGAAGUGAUGUAUAGAAUAGCGAGGACCGGUACGGCCGCCACUCGUGAAGAGAAAGGAGUGAUGUUCCGUAAUGG [Kazoo C4] | 271 nM |
| AAGUGAUGUUGUAGUGAUGUUGUGAUGUUGCAGGAUAUAUAGUGAUGUAGAAGGGUAAGUACUCAUGUUGUUAGUAAGUGAUGUU [bttutmullin] | 81.7 nM |
| UAAAUCACACGAGAUACCAGCCAAACCGAACUUGAGCACUAUAGUGAUGUUAUAUUGCGAGGCCCUUGGCAGCUCAAUAGAACAA [theeternabot_sameState_KL_Theo_B_11] | 190 nM |
| AUUUUGGUUGAGAGUGAUGUUCCUUGUGUUCGAGGACCGGUACGGCCGCCACUCGGGUAGAAAAUAAAAGAAAUGUUUGAUUUUU [BDazzled - #11 SS Tryptophan A] | 157 nM |
| GUACGCUCUCGAGUGAUGUUCGGUAAUCGCGAGGAUAUCGCUUUUGCGAGAAGGCGCGGAAUGAGGAAACUCGUUCUGAGUGUAC [FMN A 23] | 461 nM |
| GCCGUACGCAUGGAUACCAGCAAGCAUAGCAGGAAACUGCUAUGCACCAGUGAUGUUGGAUGCCCUUGGCAGCCAUGCGUACGGC | 926 nM |
| UGAUAGGACAGAAGGAGCGGUAGUGAUGUUACCAAAAGAAUAAGGUGUCAAAAGACACCCUGCCAGGUAGGUCGCUGUCCUAUCU | 90.9 nM |
| AGACUACCACACUGUCAAUAGACAGUGAAUUAGGAUAUGCUGAUAAGCAGAAGGAGUGAUGUUCCCAGGUAGUCAAUAAAAUAAU [FmnAX 13 U30+C66] | 167 nM |
| CUUGAGACAUGAGUGAUGUUCAUGUCCGAAGGAGCGUGCGAAAGCACAGGUAGGUCGCGGACGUGAGUGAUGUUCAUGUGAGCGA [KL-XArg-A10 #analogue] | 202 nM |
| UGGAGUUGACGAAAAGUCAACUCCUGAGAAGGAGCGGACGAAAGUCCAGGUAGGUCGCUCACUACCAGUGAUGUUGGUACUUGAA | 259 nM |
| UGUCAUUGGUCGGCCGCCACUAGAAGGUCAAAGACCAUAGAGUGAUGUUCUGAGACGAAAGUCACUAGGACCGGGACCGAUGACU [TrypBS 6 #SwitchBubble #K4Middle] | 1140 nM |
| CGCGCGCGCGCGCGCGCGCGCGCGCGAAGUGAGGAUAUUUAGGGAGAAAGAAGGCACUAUAAAAUAUAGUGAUGUUAUAUAAGGG [SSFMNA.B] | 720 nM |
| GUACGCUCUCGAGUGAUGUUCGGUAAUAGUUAGGAUAUCGCUUUUGCGAGAAGGAACUGAAUGAGGAAACUCGUUCUGAGUGUAC [FMN A 18] | 342 nM |
| UGUAUGUGAUUUGAUACCAGACCAGCUGGUGGUGUAUGAGUGAUGUUCAUGCUGGUUUGGGUCCCUUGGCAGCAAAUCGCAUACU [KL-SSTheoB29] | 8.46 nM |
| GCACUCCAUCGGACGUAAGUGAUGUUUACCCGAGGACCGGUACGGCCGCCACUCGACCGUGCAUAACCAAAUCAAAUAGCUUCCG [theeternabot_exclusion_KL_Trp_A_31] | 138 nM |
